Biological target: human Fas antigen on HPB-ALL cells (human) (UniProt P25445)
Test: cell-based or functional assay

Chain of UniProt P25445 (P25445 26-335): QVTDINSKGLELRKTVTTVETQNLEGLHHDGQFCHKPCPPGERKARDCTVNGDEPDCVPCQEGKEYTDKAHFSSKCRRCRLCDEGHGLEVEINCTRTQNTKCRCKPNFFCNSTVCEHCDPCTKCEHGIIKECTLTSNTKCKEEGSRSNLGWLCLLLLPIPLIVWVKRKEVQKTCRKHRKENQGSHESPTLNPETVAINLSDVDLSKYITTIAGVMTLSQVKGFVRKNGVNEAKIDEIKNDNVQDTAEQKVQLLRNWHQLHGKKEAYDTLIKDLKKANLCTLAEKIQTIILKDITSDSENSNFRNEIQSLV

mouse anti-human Fas monoclonal antibody CH11
ED50 (ng/ml), cytotoxic activity on HPB-ALL cells: 10.7 ng/mL

Reference: EP0866131A2
